Measurements reported in article PMC11234457, “Antitumor Effect of Anti‐c‐Myc Aptamer‐Based PROTAC for Degradation of the c‐Myc Protein”.

What was measured:
c-Myc [1] = molecular target: T1, c-Myc (Homo sapiens, UniProt P01106 16-454); experiment: ELISA; ELISA: c-Myc coated on microplate (100 mM NaHCO3 pH 9.6, 4 C overnight), 2% BSA in PBST block, binding buffer (composition not in material), RT 30 min; conditions: protein: commercial; tags: none (untagged)
c-Myc [2] = molecular target: T1, c-Myc; experiment: ELISA; comparable to MA9; ELISA: c-Myc coated on microplate (100 mM NaHCO3 pH 9.6, 4 C overnight), 2% BSA in PBST block, binding buffer (composition not in material), RT 30 min; conditions: protein: commercial; tags: none (untagged); label: 5' biotin; FAM; cy3; cloverleaf (predicted)
c-Myc [3] = molecular target: T1, c-Myc; experiment: competition ELISA; affinity consistent with ProMyc; ELISA: c-Myc coated on microplate (100 mM NaHCO3 pH 9.6, 4 C overnight), 2% BSA in PBST block, binding buffer (composition not in material), RT 30 min; conditions: protein: commercial; tags: none (untagged); cloverleaf (predicted)
c-Myc [4] = molecular target: T1, c-Myc; experiment: competition ELISA; 200 nM ProMyc, 50 ng c-Myc; ELISA: c-Myc coated on microplate (100 mM NaHCO3 pH 9.6, 4 C overnight), 2% BSA in PBST block, binding buffer (composition not in material), RT 30 min; conditions: protein: commercial; tags: none (untagged); cloverleaf (predicted)
c-Myc [5] = molecular target: T1, c-Myc; experiment: ELISA; 200 nM aptamer, 100 ng c-Myc/well; ELISA: c-Myc coated on microplate (100 mM NaHCO3 pH 9.6, 4 C overnight), 2% BSA in PBST block, binding buffer (composition not in material), RT 30 min; conditions: protein: commercial; tags: none (untagged); label: 5' biotin (ELISA, pull-down); FAM (flow)

T1 sequence (P01106 16-454): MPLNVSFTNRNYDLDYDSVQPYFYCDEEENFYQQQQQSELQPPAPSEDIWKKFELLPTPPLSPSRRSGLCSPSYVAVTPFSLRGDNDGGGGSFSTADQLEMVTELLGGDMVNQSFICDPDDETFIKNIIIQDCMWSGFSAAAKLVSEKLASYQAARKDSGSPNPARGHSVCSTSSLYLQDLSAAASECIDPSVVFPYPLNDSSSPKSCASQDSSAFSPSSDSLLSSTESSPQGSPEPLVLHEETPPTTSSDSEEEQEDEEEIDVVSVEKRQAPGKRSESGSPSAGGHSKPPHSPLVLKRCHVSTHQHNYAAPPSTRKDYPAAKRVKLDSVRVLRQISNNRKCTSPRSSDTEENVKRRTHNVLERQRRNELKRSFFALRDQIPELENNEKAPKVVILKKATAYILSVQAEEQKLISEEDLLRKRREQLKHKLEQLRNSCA

B1: MA9C1-mut (structured_DNA)
DNA: CGTTAATTCTGTTCGTTCTCATGGCGAACCCTGTATGACACGTTTGACGGGGAGTAACG
- binding result (c-Myc [1]): no binding

B2: MA9C1 (structured_DNA)
DNA: CGTTACTTCTGTTCGTTCTCATGGCGAACCCTGTATGGCGCGTAAGTCGGGGAGTAACG
- binding result (c-Myc [2]): binds

B3: ProMyc-VHL (structured_DNA)
DNA: CGTTACTTCTGTTCGTTCTCATGGCGAACCCTGTATGGCGCGTAAGTCGGGGAGTAACG
modifications: 5' NH2-C6 linked to (S,R,S)-AHPC-PEG5
- binding result (c-Myc [3]): binds

B4: ProMyc (structured_DNA)
DNA: CGTTACTTCTGTTCGTTCTCATGGCGAACCCTGTATGGCGCGTAAGTCGGGGAGTAACG
modifications: 5' NH2-C6 linked to pomalidomide-PEG4
- binding result (c-Myc [4]): binds

B5: MA9 (ssDNA)
DNA: CGTTACTTCTGTTCGTTCTCATGGCGAACCCTGTATGGCGCGTAAGTCGGGGAGTAACGTCTGCCTAGTTCCTTGTCTGATCTCCA
- binding result (c-Myc [5]): binds
